T1: DNA ligase IV tandem BRCT domains (residues 654-911) (UniProt P49917 654-911)
T1 sequence (looked up): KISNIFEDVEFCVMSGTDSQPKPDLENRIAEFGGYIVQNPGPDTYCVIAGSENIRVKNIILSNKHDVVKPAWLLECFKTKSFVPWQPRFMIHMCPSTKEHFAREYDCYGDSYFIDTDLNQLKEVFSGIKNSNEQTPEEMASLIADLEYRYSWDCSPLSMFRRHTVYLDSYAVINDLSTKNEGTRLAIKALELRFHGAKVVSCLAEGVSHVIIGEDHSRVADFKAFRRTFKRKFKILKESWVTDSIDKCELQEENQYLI


Tests used:
[1] = molecular target: T1, DNA ligase IV tandem BRCT domains …; assay: SEC
[2] = molecular target: the molecule itself; assay: SEC
[3] = molecular target: the molecule itself; assay: SEC-MALS

binding result [1] | Binder | binding result [2] | stoichiometry N [3]
binds | XRCC4 residues 1-238, non-phosphorylated (domain or fragment, UniProt Q13426 1-238, looked up) MERKISRIHLVSEPSITHFLQVSWEKTLESGFVITLTDGHSAWTGTVSESEISQEADDMAMEKGKYVGELRKALLSGAGPADVYTFNFSKESCYFFFEKNLKDVSFRLGSFNLEKVENPAEVIRELICYCLDTIAENQAKNEHLQKENERLLRDWNDVQGRFEKCVSAKEALETDLYKRFILVLNEKKTKIRSLHNKLLNAAQEREKDIKQEGETAICSEMTADRDPVYDESTDEESE | binds | –
binds | CK2-phosphorylated XRCC4 residues 1-238 (domain or fragment, UniProt Q13426 1-238, looked up, phosphoserine at 232, phosphothreonine at 233 (CK2alpha in vitro)) MERKISRIHLVSEPSITHFLQVSWEKTLESGFVITLTDGHSAWTGTVSESEISQEADDMAMEKGKYVGELRKALLSGAGPADVYTFNFSKESCYFFFEKNLKDVSFRLGSFNLEKVENPAEVIRELICYCLDTIAENQAKNEHLQKENERLLRDWNDVQGRFEKCVSAKEALETDLYKRFILVLNEKKTKIRSLHNKLLNAAQEREKDIKQEGETAICSEMTADRDPVYDESTDEESE | – | 2

Source: PMC5449630 (Nucleic Acids Research, 2017)
